The results in this text go back to patent publication US20260167679A1, “FUSION PROTEIN TARGETING MITOCHONDRIA, METHOD OF MAKING AND USE THEREOF” (UNIVERSITY OF ROCHESTER, priority 2020, published 2026).

One assay deals with C. elegans. The assay can be described thus: ETC inhibitor assays, survival of animals. Type of assay: in vivo, Caenorhabditis elegans. On the procedure:
Experiments were performed on at least three separate days, using 15-100 young adult animals per plate. Seeded plates were supplemented with rotenone (50 μM final concentration), antimycin A (50 μM final concentration), or oligomycin A (31 μM final concentration) 24 h before animals were transferred onto them. For azide toxicity, animals were placed in M9 buffer with 250 mM azide. Control plates were kept in the dark, and experimental plates were exposed to 1 Hz light (Quantum LED, 0.02 mW/mm^2) for the duration of the experiment. For all toxins, animals that were moving or those that moved in response to a light touch to the head were scored as alive. For rotenone, surviving animals were scored after 5 h. For antimycin A, animals were scored 16 h after exposure. For azide, animals were exposed for 1 h in M9 and allowed to recover for 1 h on a seeded culture plate and then survival was scored. Azide experimental plates were exposed to light (XCite LED, 0.19 mW/mm^2) for the duration of azide treatment and recovery. […]. For oligomycin A, animals were scored 18 h after exposure.
Experiments were carried out using a hypoxic chamber (Coy Laboratory Products, 5%/95% H2/N2 gas, palladium catalyst) at 26° C. with 50-100 animals per plate. O2 was <0.01%. Hypoxic preconditioning (PC) duration was 4 h, and control animals were incubated at 26° C. in room air for the same time. 1 Hz illumination (Quantum LED, 0.02 mW/mm^2) was carried out during PC period or during the hypoxic period. Hypoxic exposure was for 18.5, 21 h after PC. Twenty-four hours after hypoxia exposure, animals that were moving or those that moved in response to a light touch to the head were scored as alive. Data from days where PC was at least 15% effective for both +ATR and −ATR were used. Animals supplemented with ATR were allowed to lay eggs onto plates with no ATR that were subsequently used for HR experiments to minimize confounding effects of ATR. ATR from the parent animal was sufficient to provide active mtON in progeny as tested by the azide toxin assay described above. […] FCCP dissolved in ethanol was deposited onto seeded NGM plates.

Assay [1] concerns isolated C. elegans mitochondria. Put plainly: ATP measurement in isolated mitochondria (luciferase). The assay is classed as biochemical, Caenorhabditis elegans. As to conditions: isolated mitochondria supplied with ADP, mtON activation. On the procedure: Relative ATP levels were determined in isolated mitochondria given a known amount of ADP to test the ability of mtON to drive ATP synthesis. A luciferase bioluminescence kit was used according to the manufacturer's instructions (Invitrogen™ Molecular Probes™, A22066). Mitochondria were stirred in MRB at 0.5 mg/ml with 1 mg/ml fat-free BSA, 600 μM ADP, and 2 μM rotenone. 5 mM succinate was used for a control for maximum ATP level, and 0.001 mg/ml oligomycin A was used as a zero ATP synthesis control. Mitochondrial suspensions were immediately frozen with liquid nitrogen after 1, 5, or 10 min light exposure (XCite LED, 0.02 mW/mm^2). Samples were then thawed on ice, centrifuged at 14,800 g, and supernatant was collected and run at 1:100 dilution in MRB in the luminescence assay. Oligomycin A control values were subtracted from experimental reads, and data were then normalized to luminescent signal from succinate control samples (complete ADP conversion confirmed by monitoring 02 consumption rate transitions).

For assay [2] the test system is unchanged. The assay can be described thus: Mitochondrial O2 consumption (Clark-type electrode). As to conditions: isolated mitochondria fueled with substrates, mtON activated. The assay is classed as biochemical, Caenorhabditis elegans. On the procedure:
O2 consumption was measured using a Clark-type O2 electrode (S1 electrode disk, DW2/2 electrode chamber and Oxy-Lab control unit, Hansatech Instruments, Norfolk UK) at 25° C. Isolated mitochondria were stirred in MRB at 1 mg/ml with 1 mg/ml fat-free BSA. Substrates and inhibitors were added by syringe port (100 μM ADP, 2 μM rotenone, 5 mM succinate). Given excess succinate as substrate for ETC respiration, we measured the amount of O2 required to convert 50 nmol of ADP to ATP and established a baseline for comparison. To test mtON activity, mitochondria were illuminated as in the ATP measurement, for 1, 5, or 10 min in the presence of ADP without succinate to allow for mtON conversion of ADP to ATP. Any remaining ADP was then converted using 02-dependent ETC respiration upon succinate addition. Slopes were calculated from plots of O2 concentration versus time to give rates of 02 consumption during ADP respiration, ADP+succinate respiration, and respiration after ADP had been entirely consumed. The intersections of these three rates were used to calculate total amount of O2 consumed during ADP+succinate respiration. Light activation of mitochondria (XCite LED, 0.02 mW/mm^2) during ADP respiration alone was carried out for differing lengths of time to test the ability of mtON to drive ADP consumption before succinate was added. […]

The next assay concerns HEK293T cells. Put plainly: Luciferase-based ATP assay in HEK293T cells. As to conditions: 590 nm light, with or without 2-DG, vs cells in the dark. The assay is classed as cell-based. On the procedure: (A) HEK293T cells expressing mtOn or GFP were illuminated with 590 nm light for 2 hours, followed by a luciferase-based ATP assay. (B) Same set-up as in (A), except HEK293T cells were treated with 10 mM 2-DG for 2 hours prior to illumination. (C) Activated CD8+ T cells were sorted based on GFP expression. GFP negative cells were used as the mock control. CD8+ T cells received 590 nm light for 30 minutes, followed by a luciferase-based ATP assay. All data shown as mean±SEM and analyzed by an unpaired t-test (n=4-7).
To test whether mitochondrial polarization driven by light-activated proton transport leads to enhanced ATP production (FIG. 9, panel A), the study transfected HEK293T cells and mouse CD8+ T cells with mtON, illuminated the cells (590±10 nm, 0.32 mW/mm^2 at 1 Hz), and immediately lysed them to detect ATP. 2-Deoxy-D-glucose (2-DG), a glucose analog, was used to inhibit glycolysis and thus mimic the glucose-deficient TME.
To test whether the mitochondrial polarization driven by light-activated proton transport leads to enhanced ATP production, we transfected HEK293T cells and mouse CD8+T cells with mtON, illuminated (590±10 nm, 0.32 mW/mm^2 at 1 Hz) them, and immediately lysed to detect ATP. 2-Deoxy-D-glucose (2-DG), a glucose analog, was used to inhibit glycolysis and thus mimic the glucose-deficient tumor microenvironment.

B1: mtON: fusion of the 187 N-terminal amino acids of mouse IMMT1 to the light-activated proton pump (Mac) from Leptosphaeria maculans (protein)
chain: MLRACQLSGVTVAAQSCLCGKFVLRPLRPCRRYSTSSSSGLTAGKIAGAGLLFVGGGIGGTILYAKWDSHFRESVEKTIPYSDKLFGMVLGSAPYTVPLPKKPVQSGPLKISSVSEVMKDSKLPVAQSQKTKGDTPASAASTGAAQIISAAGDTLSVPAPAVQHEDTIKTECPNTNEGKSTSETTEEPAGLIVDQFEEVLMKTSQLFPLPTATQSAQPTHVAPVPTVLPDTPIYETVGDSGSKTLWVVFVLMLIASAAFTALSWKIPVNRRLYHVITTIITLTAALSYFAMATGHGVALNKIVIRTQHDHVPDTYETVYRQVYYARYIDWAITTPLLLLDLGLLAGMSGAHIFMAIVADLIMVLTGLFAAFGSEGTPQKWGWYTIACIAYIFVVWHLVLNGGANARVKGEKLRSFFVAIGAYTLILWTAYPIVWGLADGARKIGVDGEIIAYAVLDVLAKGVFGAWLLVTHANLRESDVELNGFWANGLNREGAIRIGEDDGAR
modifications: Synthetic Complete mtON fusion protein sequence
In the case of B1, the survival entry is “No significant differences” in the assay with C. elegans (31 μM oligomycin A, scored 18 hours later); “greater than the ATR alone effect” in the assay on C. elegans (50 μM rotenone for 5 hours, +ATR +light); 66.8% in the assay with C. elegans (azide toxin assay, progeny of ATR-supplemented parents, +ATR +light). For the same molecule, in the assay on C. elegans (mtON active vs controls), the “survival of animals exposed to ETC toxins” value is reported as “survived more”. Moreover, the ATP levels result in assay [1] is reported as “increased ATP levels”. Also, the “oxygen needed to make ATP” value in assay [2] is “decreased reliance on oxygen to make ATP”. Further, the ATP result in the assay on HEK293T cells is “significant increase in ATP”.
